Article PMC4192513 (2014)
Blank lines part the entries; values can stand above or below the binder they belong to.

Columns and labels:
Snu17p (residues 1-113) [1] = biological target: T1, Snu17p (residues 1-113) (S. cerevisiae, UniProt P40565 1-113); experiment: ITC; first site (KD1)
T1 chain: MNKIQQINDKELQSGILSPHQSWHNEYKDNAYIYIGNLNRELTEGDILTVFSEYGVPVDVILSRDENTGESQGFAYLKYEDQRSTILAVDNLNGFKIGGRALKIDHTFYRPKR

Snu17p (residues 1-113) [2] = biological target: T1, Snu17p (residues 1-113); experiment: ITC; second site (KD2)
Snu17p (residues 1-113) [3] = biological target: T1, Snu17p (residues 1-113); experiment: ITC

Kd (Snu17p (residues 1-113) [1]): 6.3 nM
Kd (Snu17p (residues 1-113) [2]): 234 nM
B1: Bud13p (residues 201-266) (domain or fragment)
chain: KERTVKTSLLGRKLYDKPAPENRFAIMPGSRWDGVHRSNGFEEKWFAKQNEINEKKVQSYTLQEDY

Kd (Snu17p (residues 1-113) [3]): ~60000 nM
Binder: AIMPGSRWDGVHRS [Bud13p peptide (residues 225-238)]

Kd (Snu17p (residues 1-113) [3]): 253 nM
Binder: ENRFAIMPGSRWDGVHRSNGFE [Bud13p peptide (residues 221-242)]
